How the values were obtained:
GST-MeCP2 AT-hook 2 = GST-MeCP2 AT-hook 2 (UniProt P51608); assay: competition EMSA; settings: 0.8 ug poly(dA-dT) against N1 probe; EMSA: 10 mM Tris-HCl pH 7.5, 50 mM KCl, 0.5 mM MgCl2, 0.1 mM EDTA, 0.1 mg/mL BSA, 5% glycerol; 0.5 ng probe in 20 uL; 30 min on ice; native 6% acrylamide gel
GST-MeCP2 AT-hook 1 = GST-MeCP2 AT-hook 1 (UniProt P51608); assay: competition EMSA; settings: 0.8 ug poly(dA-dT) against N1 probe; EMSA: 10 mM Tris-HCl pH 7.5, 50 mM KCl, 0.5 mM MgCl2, 0.1 mM EDTA, 0.1 mg/mL BSA, 5% glycerol; 0.5 ng probe in 20 uL; 30 min on ice; native 6% acrylamide gel

Sequence of UniProt P51608 (P51608 whole entry): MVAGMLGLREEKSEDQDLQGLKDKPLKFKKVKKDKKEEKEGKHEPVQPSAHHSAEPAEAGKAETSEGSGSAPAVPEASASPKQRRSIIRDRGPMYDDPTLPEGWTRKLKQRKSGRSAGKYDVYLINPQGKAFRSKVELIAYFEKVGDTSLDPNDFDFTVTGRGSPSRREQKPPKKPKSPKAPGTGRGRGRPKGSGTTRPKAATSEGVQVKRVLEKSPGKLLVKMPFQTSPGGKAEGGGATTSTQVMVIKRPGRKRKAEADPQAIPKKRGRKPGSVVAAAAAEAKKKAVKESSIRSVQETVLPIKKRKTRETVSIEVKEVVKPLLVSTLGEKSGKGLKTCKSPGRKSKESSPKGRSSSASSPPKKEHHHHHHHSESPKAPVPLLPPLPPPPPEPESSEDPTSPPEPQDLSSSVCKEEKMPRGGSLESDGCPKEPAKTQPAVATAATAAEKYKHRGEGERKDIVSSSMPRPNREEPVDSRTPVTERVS

In the case of poly(dA-dT), the binding signal (% of bound probe displaced) (GST-MeCP2 AT-hook 2) is reported as 20 and the binding signal (% of bound probe displaced) (GST-MeCP2 AT-hook 1) is reported as 67.

— PMC5028900
